In one series the test system is EphB4 receptor. Description: Cell-based EphB4 tyrosine kinase assay in PC3 cells. On the set-up: species or system human. Particulars: Ephrin B2-Fc ligand preincubated with protein. The method, then: All four proteins were also tested for their ability to block ligand-dependent dimerization and activation of Eph B4 receptor kinase in PC3 cells. The PC3 human prostate cancer cell line is known to express elevated levels of human Eph B4. Stimulation of PC3 cells with Ephrin B2 IgG Fc fusion protein leads to a rapid induction of tyrosine phosphorylation of the receptor. However, preincubation of the ligand with GCF2, GCF1 or GC, but not CF2 proteins suppresses subsequent EphB4 autophosphorylation.
The human prostate carcinoma cell line PC3 cells were maintained in RPMI medium with 10% dialyzed fetal calf serum and 1% penicillin/streptomycin/neomycin antibiotics mix. Cells were maintained at 37° C. in a humidified atmosphere of 5% CO2/95% air. Typically, cells were grown in 60 mm dishes until confluency and were either treated with mouse Ephrin B2-Fc fusion at 1 μg/ml in RPMI for 10 min to activate EphB4 receptor or plain medium as a control. To study the effect of different derivatives of soluble EphB4 ECD proteins on EphB4 receptor activation, three sets of cells were used. In the first set, cells were treated with various proteins (5 proteins; GC, GCF1, GCF2, GCF2-F, CF2) at 5 μg/ml for 20 min. In the second set of cells, prior to application, proteins were premixed with ephrinB2-Fc at 1:5 (EphB4 protein:B2-Fc) molar ratio, incubated for 20 min and applied on cells for 10 min. In the third set of cells, cells were first treated with the proteins for 20 min at 5 μg/ml, media was replaced with fresh media containing 1 μg/ml of EphrinB2-Fc and incubated for another 10 min.
After the stimulation, cells were immediately harvested with protein extraction buffer containing 20 mM Tris-HCl, pH 7.4, 150 mM NaCl, 1% (v/v) Triton X100, 1 mM EDTA, 1 mM PMSF, 1 mM Sodium vanadate. Protein extracts were clarified by centrifugation at 14,000 rpm for 20 min at 4° C. Clarified protein samples were incubated overnight with protein A/G coupled agarose beads pre-coated with anti-EphB4 monoclonal antibodies. The IP complexes were washed twice with the same extraction buffer containing 0.1% Triton X100. The immunoprecipitated proteins were solubilized in 1×SDS-PAGE sample loading buffer and separated on 10% SDS-PAGE. For EphB4 receptor activation studies, electroblotted membrane was probed with anti-pTyr specific antibody 4G10 at 1:1000 dilution followed by Protein G-HRP conjugate at 1:5000 dilutions.

The target in series [1] is T1, EphrinB2 (Homo sapiens, UniProt P52799).
T1 construct: protein fusion of Ephrin B2 ectodomain with placental alkaline phosphatase
Description: Ephrin B2-AP binding to immobilized EphB4EC proteins. The note with it: B4 proteins immobilized on Ni2+-resin or nitrocellulose. The method, then:
10 μl of Ni-NTA-Agarose were incubated in microcentrifuge tubes with 50 μl of indicated amount of B4ECv3 diluted in binding buffer BB (20 mM Tris-HCl, 0.15 M NaCl, 0.1% bovine serum albumin pH 8) After incubation for 30 min on shaking platform, Ni-NTA beads were washed twice with 1.4 ml of BB, followed by application of 50 μl of B2-AP in the final concentration of 50 nM. Binding was performed for 30 min on shaking platform, and then tubes were centrifuged and washed one time with 1.4 ml of BB. Amount of precipitated AP was measured colorimetrically after application of PNPP.
To confirm ability of the purified recombinant proteins to bind Ephrin B2, they were tested in an in vitro binding assay. As expected, GC, GCF1 and GCF2, but not CF2 are binding the cognate ligand Ephrin B2 as confirmed by interaction between Ephrin B2-alkaline phosphatase (Ephrin B2-AP) fusion protein with the B4 proteins immobilized on Ni^2+-resin or on nitrocellulose membrane (FIG. 17).

Series [2] in a line: In vitro stability in mouse serum (retained B2-AP binding). The class given is in vitro ADME. The method, then: Both soluble EphB4 ectodomain protein (sB4) and EphB4 ectodomain fused to HSA (HSA-sB4) were biotin labeled through carbohydrate chains using sodium meta-periodate as an oxidant and EZ-Link Biotin Hydrazide (PIERCE, Cat. #21339) according to manufacture's protocol. The in vitro stability of the biotinylated sB4 protein was tested by incubating […] with 40 μL of mouse serum at 37° C. for 0, 0.5, 1, 2 and 3 days. Two μL of magnetic beads and B2-AP was added for an extra hour at room temperature. After washing twice with buffer, pnPP was added for 1 hour.
The fractions were also tested for their stability in vitro. The fractions were tested for retention of EphrinB2 binding activity after incubation in mouse serum at 37° C. for three days.

The target in series [3] is T1, EphrinB2. Kind of series: EphrinB2 (B2-AP) binding assay on affinity magnetic beads. Particulars: SP column fractions 1, 2 and 3. From the text:
To test whether the B4-HSA fusion property retained the ability of the EphB4 extracellular domain to bind to EphrinB2, the ability of the purified B4-HSA fusion was compared to that of GCF2F, GCF2, GC, CF and B4-Fc fusion, which comprises the extracellular domain of B4 fused to hIgG1 Fc as described in Example 1. Biotinylated or His-tag protein samples were inoculated with the corresponding affinity magnetic beads and B2-AP for an hour at room temperature, before addition of PnPP. Results of binding assays are shown on FIG. 67.
Fractions 1, 2 and 3 of biotinylated and PEGylated sB4 from the SP column purification, corresponding to polypegylated, monopegylated and unpegylated biotinylated sB4, were tested for their ability to bind EphrinB2 using the standard assay. Results of this experiment are shown on FIG. 72.

[4] abbreviates: retention of EphrinB2 binding, mouse serum, 37° C., three days.

Where two headings read alike, the source gives them in different places.

T1 sequence (P52799 28-229 limits assumed): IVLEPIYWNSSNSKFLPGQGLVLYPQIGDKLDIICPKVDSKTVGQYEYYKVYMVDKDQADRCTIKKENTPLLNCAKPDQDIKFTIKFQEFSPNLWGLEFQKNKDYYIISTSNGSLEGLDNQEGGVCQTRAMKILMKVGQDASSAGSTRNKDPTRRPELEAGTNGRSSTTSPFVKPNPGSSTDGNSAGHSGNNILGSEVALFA

B1: GCF2: recombinant protein containing the complete ectopic part of EphB4, 6xHis tagged, SEQ ID NO:14 (protein)
chain: MELRVLLCWASLAAALEETLLNTKLETADLKWVTFPQVDGQWEELSGLDEEQHSVRTYEVCEVQRAPGQAHWLRTGWVPRRGAVHVYATLRFTMLECLSLPRAGRSCKETFTVFYYESDADTATALTPAWMENPYIKVDTVAAEHLTRKRPGAEATGKVNVKTLRLGPLSKAGFYLAFQDQGACMALLSLHLFYKKCAQLTVNLTRFPETVPRELVVPVAGSCVVDAVPAPGPSPSLYCREDGQWAEQPVTGCSCAPGFEAAEGNTKCRACAQGTFKPLSGEGSCQPCPANSHSNTIGSAVCQCRVGYFRARTDPRGAPCTTPPSAPRSVVSRLNGSSLHLEWSAPLESGGREDLTYALRCRECRPGGSCAPCGGDLTFDPGPRDLVEPWVVVRGLRPDFTYTFEVTALNGVSSLATGPVPFEPVNVTTDREVPPAVSDIRVTRSSPSSLSLAWAVPRAPSGAWLDYEVKYHEKGAEGPSSVRFLKTSENRAELRGLKRGASYLVQVRARSEAGYGPFGQEHHSQTQLDESEGWREQGSKRAILQIEGKPIPNPLLGLDSTRTGHHHHHH
modifications: Recombinant FL-hB4EC
As to B1, the EphB4 autophosphorylation result in the series on EphB4 receptor is listed as “suppresses”. For the same molecule, the “binding the cognate ligand Ephrin B2” value with EphrinB2 [1] is on record as “binding”.

B2: sB4: soluble EphB4 ectodomain protein, biotin labeled through carbohydrate chains; SP column fraction 3 (protein)
chain: LEETLLNTKLETADLKWVTFPQVDGQWEELSGLDEEQHSVRTYEVCDVQRAPGQAHWLRTGWVPRRGAVHVYATLRFTMLECLSLPRAGRSCKETFTVFYYESDADTATALTPAWMENPYIKVDTVAAEHLTRKRPGAEATGKVNVKTLRLGPLSKAGFYLAFQDQGACMALLSLHLFYKKCAQLTVNLTRFPETVPRELVVPVAGSCVVDAVPAPGPSPSLYCREDGQWAEQPVTGCSCAPGFEAAEGNTKCRACAQGTFKPLSGEGSCQPCPANSHSNTIGSAVCQCRVGYFRARTDPRGAPCTTPPSAPRSVVSRLNGSSLHLEWSAPLESGGREDLTYALRCRECRPGGSCAPCGGDLTFDPGPRDLVEPWVVVRGLRPDFTYTFEVTALNGVSSLATGPVPFEPVNVTTDREVPPAVSDIRVTRSSPSSLSLAWAVPRAPSGAVLDYEVKYHEKGAEGPSSVRFLKTSENRAELRGLKRGASYLVQVRARSEAGYGPFGQEHHSQTQLDESEGWREQLA
On to B2, for which, in series [2], the “B2 binding activity lost” value is “less than 10%” and the “order of in vitro stability” value is “monopegylated>unpegylated>polypegylated”. Moreover, the “order of binding activity” value with EphrinB2 [3] was “Unpegylated>monopegylated>polypegylated”.

B3: monopegylated: fraction 2: monopegylated biotinylated sB4, linear PEG-succinimidyl propionate of about 20 kda (conjugate)
chain: LEETLLNTKLETADLKWVTFPQVDGQWEELSGLDEEQHSVRTYEVCDVQRAPGQAHWLRTGWVPRRGAVHVYATLRFTMLECLSLPRAGRSCKETFTVFYYESDADTATALTPAWMENPYIKVDTVAAEHLTRKRPGAEATGKVNVKTLRLGPLSKAGFYLAFQDQGACMALLSLHLFYKKCAQLTVNLTRFPETVPRELVVPVAGSCVVDAVPAPGPSPSLYCREDGQWAEQPVTGCSCAPGFEAAEGNTKCRACAQGTFKPLSGEGSCQPCPANSHSNTIGSAVCQCRVGYFRARTDPRGAPCTTPPSAPRSVVSRLNGSSLHLEWSAPLESGGREDLTYALRCRECRPGGSCAPCGGDLTFDPGPRDLVEPWVVVRGLRPDFTYTFEVTALNGVSSLATGPVPFEPVNVTTDREVPPAVSDIRVTRSSPSSLSLAWAVPRAPSGAVLDYEVKYHEKGAEGPSSVRFLKTSENRAELRGLKRGASYLVQVRARSEAGYGPFGQEHHSQTQLDESEGWREQLA
Take B3: the “order of in vitro stability” value in series [2] (setting [4]) is recorded as “monopegylated>unpegylated>polypegylated”. For the same molecule, in the series with EphrinB2 [3], the “order of binding activity” value is listed as “Unpegylated>monopegylated>polypegylated”.

B4: polypegylated: fraction 1: polypegylated biotinylated sB4, linear PEG-succinimidyl propionate of about 20 kda (conjugate)
chain: LEETLLNTKLETADLKWVTFPQVDGQWEELSGLDEEQHSVRTYEVCDVQRAPGQAHWLRTGWVPRRGAVHVYATLRFTMLECLSLPRAGRSCKETFTVFYYESDADTATALTPAWMENPYIKVDTVAAEHLTRKRPGAEATGKVNVKTLRLGPLSKAGFYLAFQDQGACMALLSLHLFYKKCAQLTVNLTRFPETVPRELVVPVAGSCVVDAVPAPGPSPSLYCREDGQWAEQPVTGCSCAPGFEAAEGNTKCRACAQGTFKPLSGEGSCQPCPANSHSNTIGSAVCQCRVGYFRARTDPRGAPCTTPPSAPRSVVSRLNGSSLHLEWSAPLESGGREDLTYALRCRECRPGGSCAPCGGDLTFDPGPRDLVEPWVVVRGLRPDFTYTFEVTALNGVSSLATGPVPFEPVNVTTDREVPPAVSDIRVTRSSPSSLSLAWAVPRAPSGAVLDYEVKYHEKGAEGPSSVRFLKTSENRAELRGLKRGASYLVQVRARSEAGYGPFGQEHHSQTQLDESEGWREQLA
In the case of B4, the “order of in vitro stability” value in series [2] (setting [4]) is listed as “monopegylated>unpegylated>polypegylated”. In addition, in the series with EphrinB2 [3], the “order of binding activity” value is reported as “Unpegylated>monopegylated>polypegylated”.

B5: CF2: EphB4 ECD version with deleted globular domain, SEQ ID NO:15 (protein)
chain: MELRVLLCWASLAAALEETLLNTKLETQLTVNLTRFPETVPRELVVPVAGSCVVDAVPAPGPSPSLYCREDGQWAEQPVTGCSCAPGFEAAEGNTKCRACAQGTFKPLSGEGSCQPCPANSHSNTIGSAVCQCRVGYFRARTDPRGAPCTTPPSAPRSVVSRLNGSSLHLEWSAPLESGGREDLTYALRCRECRPGGSCAPCGGDLTFDPGPRDLVEPWVVVRGLRPDFTYTFEVTALNGVSSLATGPVPFEPVNVTTDREVPPAVSDIRVTRSSPSSLSLAWAVPRAPSGAWLDYEVKYHEKGAEGPSSVRFLKTSENRAELRGLKRGASYLVQVRARSEAGYGPFGQEHHSQTQLDESEGWREQGGRSSLEGPRFEGKPIPNPLLGLDSTRTGHHHHHH
modifications: Recombinant B4-CF2
Take B5: in the series with EphB4 receptor, the EphB4 autophosphorylation entry was “not”. Further, the “binding the cognate ligand Ephrin B2” value with EphrinB2 [1] is “not”.

The values are drawn from patent US9533026B2, “Polypeptide compounds for inhibiting angiogenesis and tumor growth” (VasGene Therapeutics, Inc., priority 2004, dated 2017).
